Numbered stars: 1 amine (or outer) side, 2 acyl side, 3 side chain; on linkers, the order of the positions; unused ones are H or OH. Bridge positions count the residues as written; N and C are the ends. Side chains are listed from the residue outwards. Ends that are not written are not given here. * marks the point of attachment. C20 diacid = O=C(O)CCCCCCCCCCCCCCCCCCC(=O)*; γGlu = O=C(O)[C@H](CCC(=O)[*:2])N[*:1]
T1: human amylin receptor (amylin 3(a) receptor: human calcitonin receptor coexpressed with RAMP-3) (human, UniProt P30988 25-474; O60896 24-148)
T1 sequence (looked up) 1: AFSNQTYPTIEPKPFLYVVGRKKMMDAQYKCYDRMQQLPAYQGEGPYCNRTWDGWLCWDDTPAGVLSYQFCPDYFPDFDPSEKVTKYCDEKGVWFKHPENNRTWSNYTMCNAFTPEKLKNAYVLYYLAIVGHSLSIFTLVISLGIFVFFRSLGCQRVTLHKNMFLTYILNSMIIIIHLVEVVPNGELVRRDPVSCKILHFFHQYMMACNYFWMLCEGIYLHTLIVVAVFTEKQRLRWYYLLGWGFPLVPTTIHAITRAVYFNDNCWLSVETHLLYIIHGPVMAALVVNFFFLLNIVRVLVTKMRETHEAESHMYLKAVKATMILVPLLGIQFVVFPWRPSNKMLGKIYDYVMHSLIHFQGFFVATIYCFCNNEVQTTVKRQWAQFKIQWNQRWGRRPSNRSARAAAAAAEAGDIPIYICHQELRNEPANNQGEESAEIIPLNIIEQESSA
T1 sequence (looked up) 2: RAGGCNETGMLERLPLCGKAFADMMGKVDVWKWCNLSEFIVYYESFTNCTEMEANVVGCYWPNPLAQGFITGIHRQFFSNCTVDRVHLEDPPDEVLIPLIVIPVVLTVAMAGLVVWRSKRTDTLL

T2: human calcitonin receptor (human, UniProt P30988 25-474)
T2 sequence (looked up): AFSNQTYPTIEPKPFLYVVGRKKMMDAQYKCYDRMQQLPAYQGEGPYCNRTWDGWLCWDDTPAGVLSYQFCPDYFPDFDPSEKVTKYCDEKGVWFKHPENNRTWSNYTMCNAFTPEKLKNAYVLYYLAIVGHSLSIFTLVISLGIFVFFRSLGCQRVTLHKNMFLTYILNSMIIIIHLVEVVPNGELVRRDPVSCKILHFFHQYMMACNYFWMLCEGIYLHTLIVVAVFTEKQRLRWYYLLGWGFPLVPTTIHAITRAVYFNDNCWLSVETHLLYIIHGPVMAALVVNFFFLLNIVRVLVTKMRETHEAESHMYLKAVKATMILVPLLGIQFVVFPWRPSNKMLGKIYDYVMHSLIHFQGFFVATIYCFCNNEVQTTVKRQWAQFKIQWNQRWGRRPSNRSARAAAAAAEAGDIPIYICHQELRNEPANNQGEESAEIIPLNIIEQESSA


Experiments:
[1] = target: T1, human amylin receptor (amylin 3(a) …); experiment: cell-based or functional assay
[2] = target: T2, human calcitonin receptor; experiment: cell-based or functional assay
[3] = target: T1, human amylin receptor (amylin 3(a) …); experiment: SPA competition against 125I-rat amylin, membranes of BHK amylin 3(a)/CRE-luc cells (Assay V)
Description: The binding assay was performed using scintillation proximity assay (SPA) beads (RPNQ0001) from PerkinElmer and cell membranes from the Amylin 3(a)/CRE-luc cells (as described in Assay (II)) were used. Membranes were prepared in the following way; the cells were rinsed with PBS and incubated with Versene for approximately 5 min before harvesting. The cells were flushed with PBS and the cell-suspension was centrifuged for 5 min at 1000 rpm. Cells were homogenized (ultrathurrax) in a buffer containing 20 mM Na-HEPES and 10 mM EDTA (pH 7.4) and centrifuged at 20.000 rpm for 15 min. The resulting pellet was resuspended, homogenized and centrifuged (20.000 rpm, 15 min) in a buffer containing 20 mM Na-HEPES and 0.1 mM EDTA (pH 7.4, buffer 2). The resulting pellet was resuspended in buffer 2 and protein concentration was measured (BCA protein Assay, Pierce). The homogenate was kept cold during the whole procedure. The membranes were kept at −80° C. until use. The assay was performed in a 384 well Optiplate (PerkinElmer) in a total volume of 40 ul. Membranes were mixed with SPA beads. Final concentration of membranes 35 ng/μL final and SPA beads was 0.05 mg/well. Test-compounds were dissolved in DMSO and further diluted in assay buffer (50 mM Hepes, pH 7.4, 1 mM CaCl2, 5 mM MgCl₂, 0.1% OA and 0.02% Tween20). […] The final mixture was incubated with shaking at 400 rpm for 120 min at 25° C. prior to centrifugation (1500 rpm, 10 min). Samples were analyzed on TopCounter™ (Packard). The IC₅₀ was calculated using (one site binding competition analysis) GraphPad Prism5 as a measure of receptor affinity.

hAmylin-R funct. EC50 (pM) [1]	Ratio hCT/hAmylin funct. [2]	hCTR funct. EC50 (pM) [2]	IC50 [3]	Binder
703 pM	10.6	7430 pM	0.957 nM	K([γGlu-γGlu-C20 diacid])CNTATCATQRLAEFLRHSSPNFGAIPSSTNVGRETY-NH2 (disulfide 2-7; N-terminus assumed; SMILES CC[C@H](C)[C@H](NC(=O)[C@H](C)NC(=O)CNC(=O)[C@H](Cc1ccccc1)NC(=O)[C@H](CC(N)=O)NC(=O)[C@@H]1CCCN1C(=O)[C@H](CO)NC(=O)[C@H](CO)NC(=O)[C@H](Cc1c[nH]cn1)NC(=O)[C@H](CCCNC(=N)N)NC(=O)[C@H](CC(C)C)NC(=O)[C@H](Cc1ccccc1)NC(=O)[C@H](CCC(=O)O)NC(=O)[C@H](C)NC(=O)[C@H](CC(C)C)NC(=O)[C@H](CCCNC(=N)N)NC(=O)[C@H](CCC(N)=O)NC(=O)[C@@H](NC(=O)[C@H](C)NC(=O)[C@@H]1CSSC[C@H](NC(=O)[C@@H](N)CCCCNC(=O)CC[C@H](NC(=O)CC[C@H](NC(=O)CCCCCCCCCCCCCCCCCCC(=O)O)C(=O)O)C(=O)O)C(=O)N[C@@H](CC(N)=O)C(=O)N[C@@H]([C@@H](C)O)C(=O)N[C@@H](C)C(=O)N[C@@H]([C@@H](C)O)C(=O)N1)[C@@H](C)O)C(=O)N1CCC[C@H]1C(=O)N[C@@H](CO)C(=O)N[C@@H](CO)C(=O)N[C@H](C(=O)N[C@@H](CC(N)=O)C(=O)N[C@H](C(=O)NCC(=O)N[C@@H](CCCNC(=N)N)C(=O)N[C@@H](CCC(=O)O)C(=O)N[C@H](C(=O)N[C@@H](Cc1ccc(O)cc1)C(N)=O)[C@@H](C)O)C(C)C)[C@@H](C)O)
5170 pM	17.3	89600 pM	1.19 nM	K([γGlu-γGlu-C20 diacid])CNTATCATQRLAEFLRHSSNNPGAILSSTNVGPETY-NH2 (disulfide 2-7)
225 pM	10.5	2360 pM	0.121 nM	K([γGlu-γGlu-C20 diacid])CNTATCATQRLAEFLRHSSPNFGAIPSSTNVGPETY-NH2 (disulfide 2-7; N-terminus assumed; SMILES CC[C@H](C)[C@H](NC(=O)[C@H](C)NC(=O)CNC(=O)[C@H](Cc1ccccc1)NC(=O)[C@H](CC(N)=O)NC(=O)[C@@H]1CCCN1C(=O)[C@H](CO)NC(=O)[C@H](CO)NC(=O)[C@H](Cc1c[nH]cn1)NC(=O)[C@H](CCCNC(=N)N)NC(=O)[C@H](CC(C)C)NC(=O)[C@H](Cc1ccccc1)NC(=O)[C@H](CCC(=O)O)NC(=O)[C@H](C)NC(=O)[C@H](CC(C)C)NC(=O)[C@H](CCCNC(=N)N)NC(=O)[C@H](CCC(N)=O)NC(=O)[C@@H](NC(=O)[C@H](C)NC(=O)[C@@H]1CSSC[C@H](NC(=O)[C@@H](N)CCCCNC(=O)CC[C@H](NC(=O)CC[C@H](NC(=O)CCCCCCCCCCCCCCCCCCC(=O)O)C(=O)O)C(=O)O)C(=O)N[C@@H](CC(N)=O)C(=O)N[C@@H]([C@@H](C)O)C(=O)N[C@@H](C)C(=O)N[C@@H]([C@@H](C)O)C(=O)N1)[C@@H](C)O)C(=O)N1CCC[C@H]1C(=O)N[C@@H](CO)C(=O)N[C@@H](CO)C(=O)N[C@H](C(=O)N[C@@H](CC(N)=O)C(=O)N[C@H](C(=O)NCC(=O)N1CCC[C@H]1C(=O)N[C@@H](CCC(=O)O)C(=O)N[C@H](C(=O)N[C@@H](Cc1ccc(O)cc1)C(N)=O)[C@@H](C)O)C(C)C)[C@@H](C)O)
